Measured values published in the supplement of paper PMC9112550, “Optimization of the antimicrobial peptide Bac7 by deep mutational scanning” (BMC Biology, 2022).

System: Escherichia coli TOP10
Experiment: shrunken log2 fold change of peptide-encoding DNA abundance (4.5 h post-induction vs induction); higher = less antimicrobial activity (less host growth inhibition)
Conditions: time post-induction: 4.5 h; library: site-saturation at positions 5, 18, 19, 20
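Also: peptides expressed intracellularly from a pBAD plasmid library in pooled LB shake-flask culture, induced with 0.3% L-arabinose, DNA abundance read by NGS, three biological replicates, DESeq2 with apeglm shrinkage.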

| Sequence | shrunken log2 fold change |
| --- | --- |
| RRIRWRPPRLPRPRPRPSAYPRP | -0.549 |
| RRIRPRPPRLPRPRPRPDEWPRP | 0.0186 |
| RRIRCRPPRLPRPRPRPHARPRP | 0.204 |
| RRIRKRPPRLPRPRPRPTMHPRP | 0.455 |
| RRIRLRPPRLPRPRPRPHDHPRP | 0.0691 |
| RRIRDRPPRLPRPRPRPFLTPRP | -0.0719 |
| RRIRCRPPRLPRPRPRPCPVPRP | -0.28 |
| RRIRVRPPRLPRPRPRPDGYPRP | -0.00884 |
| RRIRYRPPRLPRPRPRPDKIPRP | -0.155 |
| RRIRSRPPRLPRPRPRPTPQPRP | 0.388 |
| RRIRLRPPRLPRPRPRPTGRPRP | 0.105 |
| RRIRNRPPRLPRPRPRPQFYPRP | -0.475 |
| RRIRDRPPRLPRPRPRPVSWPRP | 1.13 |
| RRIRNRPPRLPRPRPRPCGVPRP | -0.00664 |
| RRIRRRPPRLPRPRPRPMMSPRP | 0.0352 |
| RRIRWRPPRLPRPRPRPLDCPRP | -0.117 |
| RRIRDRPPRLPRPRPRPWGHPRP | 0.0208 |
| RRIRIRPPRLPRPRPRPFGHPRP | -0.272 |
| RRIRHRPPRLPRPRPRPLMKPRP | -0.581 |
| RRIRIRPPRLPRPRPRPGPGPRP | 0.385 |
| RRIRRRPPRLPRPRPRPYERPRP | -0.18 |
| RRIRGRPPRLPRPRPRPYSTPRP | 0.037 |
| RRIRTRPPRLPRPRPRPCMSPRP | -0.196 |

| Sequence | shrunken log2 fold change |
| --- | --- |
| RRIRLRPPRLPRPRPRPQPLPRP | 0.00386 |
| RRIRKRPPRLPRPRPRPEHWPRP | 0.428 |
| RRIRDRPPRLPRPRPRPSQWPRP | -0.119 |
| RRIRLRPPRLPRPRPRPYTMPRP | -0.923 |
| RRIRQRPPRLPRPRPRPSIHPRP | -0.451 |
| RRIRMRPPRLPRPRPRPTIRPRP | 0.0273 |
| RRIRRRPPRLPRPRPRPKFYPRP | -0.102 |
| RRIRERPPRLPRPRPRPFMRPRP | 0.154 |
| RRIRNRPPRLPRPRPRPGGKPRP | -0.101 |
| RRIRRRPPRLPRPRPRPMMMPRP | 0.0332 |
| RRIRLRPPRLPRPRPRPSCHPRP | -0.475 |
| RRIRFRPPRLPRPRPRPACAPRP | 0.291 |
| RRIRGRPPRLPRPRPRPCWPPRP | 0.455 |
| RRIRPRPPRLPRPRPRPFTAPRP | -0.332 |
| RRIRGRPPRLPRPRPRPVHFPRP | 0.562 |
| RRIRSRPPRLPRPRPRPPSIPRP | 0.2 |
| RRIRKRPPRLPRPRPRPHKKPRP | -0.127 |
| RRIRSRPPRLPRPRPRPWDLPRP | 0.056 |
| RRIRRRPPRLPRPRPRPNFSPRP | 0.211 |
| RRIRYRPPRLPRPRPRPVICPRP | -0.0887 |
| RRIRIRPPRLPRPRPRPPAVPRP | 0.279 |
| RRIRKRPPRLPRPRPRPNSLPRP | -0.00111 |
| RRIRDRPPRLPRPRPRPVWHPRP | 0.0277 |

| Sequence | shrunken log2 fold change |
| --- | --- |
| RRIRYRPPRLPRPRPRPTEMPRP | -0.306 |
| RRIRSRPPRLPRPRPRPPARPRP | 0.876 |
| RRIRTRPPRLPRPRPRPWTDPRP | -0.17 |
| RRIRVRPPRLPRPRPRPRRPPRP | 0.34 |
| RRIRGRPPRLPRPRPRPHSEPRP | 0.194 |
| RRIRQRPPRLPRPRPRPAWVPRP | 0.0382 |
| RRIRGRPPRLPRPRPRPTWGPRP | 0.469 |
| RRIRTRPPRLPRPRPRPMHLPRP | -0.318 |
| RRIRMRPPRLPRPRPRPILAPRP | 0.261 |
| RRIRLRPPRLPRPRPRPDGPPRP | 0.0394 |
| RRIRERPPRLPRPRPRPDIFPRP | 0.0405 |
| RRIRRRPPRLPRPRPRPIDYPRP | -0.029 |
| RRIRARPPRLPRPRPRPNPQPRP | 0.002 |
| RRIRNRPPRLPRPRPRPTQQPRP | 0.244 |
| RRIRSRPPRLPRPRPRPHRWPRP | 0.0724 |
| RRIRARPPRLPRPRPRPCGLPRP | -0.0341 |
| RRIRERPPRLPRPRPRPEMHPRP | 0.0332 |
| RRIRNRPPRLPRPRPRPFNFPRP | 0.125 |
| RRIRARPPRLPRPRPRPKEFPRP | 0.355 |
| RRIRGRPPRLPRPRPRPRKRPRP | 1.21 |
| RRIRPRPPRLPRPRPRPVAVPRP | 0.143 |
| RRIRERPPRLPRPRPRPFVNPRP | -0.561 |
| RRIRPRPPRLPRPRPRPAQLPRP | 0.237 |

| Sequence | shrunken log2 fold change |
| --- | --- |
| RRIRFRPPRLPRPRPRPSSEPRP | -0.134 |
| RRIRPRPPRLPRPRPRPYDIPRP | -0.88 |
| RRIRPRPPRLPRPRPRPLDEPRP | 0.102 |
| RRIRHRPPRLPRPRPRPSMVPRP | -0.372 |
| RRIRSRPPRLPRPRPRPENCPRP | 0.00362 |
| RRIRIRPPRLPRPRPRPNHQPRP | -0.164 |
| RRIRLRPPRLPRPRPRPGRLPRP | 0.0389 |
| RRIRRRPPRLPRPRPRPSDTPRP | -0.0536 |
| RRIRARPPRLPRPRPRPVEIPRP | 0.0505 |
| RRIRHRPPRLPRPRPRPPHHPRP | -0.0583 |
| RRIRMRPPRLPRPRPRPVTPPRP | 0.614 |
| RRIRQRPPRLPRPRPRPTWTPRP | -0.0772 |
| RRIRFRPPRLPRPRPRPPWNPRP | -0.128 |
| RRIRHRPPRLPRPRPRPIPPPRP | -0.0356 |
| RRIRRRPPRLPRPRPRPVWDPRP | 0.246 |
| RRIRVRPPRLPRPRPRPRARPRP | 0.737 |
| RRIRLRPPRLPRPRPRPTENPRP | -0.171 |
| RRIRIRPPRLPRPRPRPEDIPRP | -0.407 |
| RRIRHRPPRLPRPRPRPCAHPRP | 0.0671 |
| RRIRVRPPRLPRPRPRPIWDPRP | 0.0206 |
| RRIRCRPPRLPRPRPRPKIRPRP | 0.0994 |
| RRIRMRPPRLPRPRPRPTHTPRP | 1.03 |
